Assay results: US20230417748A1
Where “and” joins values, the source holds several entries; their conditions need not be identical. Identical values can stand only once.

B1: clone 5E9 (antibody, V domains shown)
VH: EVQLVESGGGLVQPGGSLRLSCAASGFTFTTYDMGWVRQAPGKGPEWVSLISSGGSNTWYDDSVKGRFTISRDNSKNTLYLQMNSLRAEDTAVYYCAKEKYPYSDCDYWGQGTLVTVSS
B2: clone 6D9 (antibody, V domains shown)
VH: EVQLVESGGGLVQPGGSLRLSCAASGFTFTDYDMGWVRQAPGKGPEWVSLISGDSGNTWYDDSVKGRFTISRDNSKNTLYLQMNSLRAEDTAVYYCAKYRGTTKDYWGQGTLVTVSS

Biological target: SARS-CoV-2 (2019-nCoV) Spike Protein (S1+S2 ECD, His tag) (Sino Biological, 40589-V08B1) (SARS-CoV-2), P0DTC2
Settings: remark: other sources report otherwise

Row | Binder | O.D.
1 | B1 | 0.892 O.D. and 0.904 O.D.
2 | B2 | 0.997 O.D. and 0.991 O.D.
